# Patent US20260125454A1 (SHANGHAI JUNSHI BIOSCIENCES, published 2026)
# What was measured:
# [1] = target: CGRP antigen; experiment: cell-based or functional assay
# [2] = target: T1, Biotin-huCGRPaSA (human, not fully specified; biotin (position not given)); experiment: ELISA, supernatant; relative to chimeric C245
# T1 construct: exact construct ('aSA') not explained; also called Biotin CGRPaSA; full-length (1-37) CGRP
# T1 peptide: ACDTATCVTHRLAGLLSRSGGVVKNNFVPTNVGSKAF
# Procedure, shortened: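 Antibodies, including reference chimeric C245, titrated 2.5-fold from 1000 ng/mL and incubated 60 min at 37°C on wells coated with 1.0 μg/mL biotin-CGRPaSA and blocked with 2% BSA. Bound IgG detected with HRP anti-human Fc antibody and TMB, acid-stopped, absorbance 450/620 nm.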
Binder,IC50 [1] [µg/mL],relative activity (%) vs Ref(TEVA) [1] [%],"Relative binding activity, % [2] [%]",relative activity (%) vs C245 [1] [%]
"hu74 (antibody, V domains shown, 1F5 HC-4/2B8 LC2-1) VH: QVQLVQSGSELKKPGASVKVSCKASGYTFTDFNMHWVRQAPGQGLEWMGYIYPYNGDVVYNQNFTNRFVLSVDSSSSTAYLQISSLKAEDTAVYYCAREGLGGYWGQGTLVTVSS VL: DIVLTQSPDSLAVSLGERATINCQASQNIDGNTYMNWYQQKPGQPPKVLIYSIFNLESGVPDRFSGSGSGTDFTLTISSLQAEDVAVYYCQQSNDYPYTFGQGTKLEIK",0.0739,58,112,–
"hu77 (antibody, V domains shown, 1F5 HC-4/3H10 LC2-1) VH: QVQLVQSGSELKKPGASVKVSCKASGYTFTDFNMHWVRQAPGQGLEWMGYIYPYNGDVVYNQNFTNRFVLSVDSSSSTAYLQISSLKAEDTAVYYCAREGLGGYWGQGTLVTVSS VL: DIVLTQSPDSLAVSLGERATINCKASQNIDYGGYSYMNWYQQKPGQPPKVLIYSVFNLESGVPDRFSGSGSGTDFTLTISSLQAEDVAVYYCQQSNEAPYTFGQGTKLEIK",0.0778,55,112,–
"hu66 (antibody, V domains shown, 1F5 HC-4/1A2 LC2-1) VH: QVQLVQSGSELKKPGASVKVSCKASGYTFTDFNMHWVRQAPGQGLEWMGYIYPYNGDVVYNQNFTNRFVLSVDSSSSTAYLQISSLKAEDTAVYYCAREGLGGYWGQGTLVTVSS VL: DIVLTQSPASLAVSPGQRATITCKASQNIDYDGYAYLNWYQQKPGQPPKVLIYSVFNLESGVPARFSGSGSGTDFTLTINPVEANDTANYYCQQSNEFPYTFGQGTKLEIK",0.0566,89,129,–
"hu76 (antibody, V domains shown, 1F5 HC-4/3E5 LC-1) VH: QVQLVQSGSELKKPGASVKVSCKASGYTFTDFNMHWVRQAPGQGLEWMGYIYPYNGDVVYNQNFTNRFVLSVDSSSSTAYLQISSLKAEDTAVYYCAREGLGGYWGQGTLVTVSS VL: DIVLTQSPDSLAVSLGERATINCKASQNIDYDGYTYLNWYQQKPGQPPKVLIYSIFNLESGVPDRFSGSGSGTDFTLTISSLQAEDVAVYYCQQSNEVPYTFGQGTKLEIK",0.0649,66,112,–
"hu226 (antibody, V domains shown, 3C1 HC-2/3C1 LC-1) VH: QVQLVQSGAEVKKPGASVKVSCKASGYTFTGYTMNWVRQAPGQRLEWMGLINPYIGNTHYNQKFKDRVTFTVDRSSSTAYMELSSLRSEDTAVYYCARELDSGFDYWGQGTLVTVSS VL: DVVMTQSPLSLPVTLGQPASISCRSSQNIVHSNGDTYLEWYQQRPGQSPRLLIYKVSNRFSGVPDRFSGSGSGTDFTLKISRVEAEDVGVYYCYQGSHVPWTFGQGTKLEIK",0.0446,–,65,53
"hu229 (antibody, V domains shown, 3C1 HC-2/3C1 LC-4) VH: QVQLVQSGAEVKKPGASVKVSCKASGYTFTGYTMNWVRQAPGQRLEWMGLINPYIGNTHYNQKFKDRVTFTVDRSSSTAYMELSSLRSEDTAVYYCARELDSGFDYWGQGTLVTVSS VL: DVVMTQSPDSLAVSLGERATINCRSSQNIVHSNADTYLEWYQQKPGQPPKLLIYKVSNRFSGVPDRFSGSGSGTDFTLTISSLQAEDVAVYYCYQGSHVPWTFGQGTKLEIK",0.0851,–,48,28
"hu225 (antibody, V domains shown, 3C1 HC-1/3C1 LC-4) VH: QVQLVQSGAEVKKPGASVKVSCKASGYSFTGYTMNWVRQAPGQRLEWMGLINPYIGNTHYNQKFKDRVTFTVDRSSSTAYMELSSLRSEDTAVYYCARELDSGFDYWGQGTLVTVSS VL: DVVMTQSPDSLAVSLGERATINCRSSQNIVHSNADTYLEWYQQKPGQPPKLLIYKVSNRFSGVPDRFSGSGSGTDFTLTISSLQAEDVAVYYCYQGSHVPWTFGQGTKLEIK",0.185,–,52,10
"hu223 (antibody, V domains shown, 3C1 HC-1/3C1 LC-2) VH: QVQLVQSGAEVKKPGASVKVSCKASGYSFTGYTMNWVRQAPGQRLEWMGLINPYIGNTHYNQKFKDRVTFTVDRSSSTAYMELSSLRSEDTAVYYCARELDSGFDYWGQGTLVTVSS VL: DVVMTQTPLSLSVTPGQPASISCRSSQNIVHSNGDTYLEWYLQKPGQSPQLLIYKVSNRFSGVPDRFSGSGSGTDFTLKISRVEAEDVGVYYCYQGSHVPWTFGQGTKLEIK",0.0353,–,71,51
"hu232 (antibody, V domains shown, 3C1 HC-3/3C1 LC-3) VH: QVQLVQSGSELKKPGASVKVSCKASGYTFTGYTMNWVRQAPGQGLEWMGLINPYIGNTHYNQKFKDRFVFSVDRSSSTAYLQISSLKAEDTAVYYCARELDSGFDYWGQGTLVTVSS VL: DVVMTQSPDSLAVSLGERATINCRSSQNIVHSNGDTYLEWYQQKPGQPPKLLIYKVSNRFSGVPDRFSGSGSGTDFTLTISSLQAEDVAVYYCYQGSHVPWTFGQGTKLEIK",0.044,–,70,59
"hu227 (antibody, V domains shown, 3C1 HC-2/3C1 LC-2) VH: QVQLVQSGAEVKKPGASVKVSCKASGYTFTGYTMNWVRQAPGQRLEWMGLINPYIGNTHYNQKFKDRVTFTVDRSSSTAYMELSSLRSEDTAVYYCARELDSGFDYWGQGTLVTVSS VL: DVVMTQTPLSLSVTPGQPASISCRSSQNIVHSNGDTYLEWYLQKPGQSPQLLIYKVSNRFSGVPDRFSGSGSGTDFTLKISRVEAEDVGVYYCYQGSHVPWTFGQGTKLEIK",0.0368,–,64,64
"hu222 (antibody, V domains shown, 3C1 HC-1/3C1 LC-1) VH: QVQLVQSGAEVKKPGASVKVSCKASGYSFTGYTMNWVRQAPGQRLEWMGLINPYIGNTHYNQKFKDRVTFTVDRSSSTAYMELSSLRSEDTAVYYCARELDSGFDYWGQGTLVTVSS VL: DVVMTQSPLSLPVTLGQPASISCRSSQNIVHSNGDTYLEWYQQRPGQSPRLLIYKVSNRFSGVPDRFSGSGSGTDFTLKISRVEAEDVGVYYCYQGSHVPWTFGQGTKLEIK",0.039,–,65,46
"hu230 (antibody, V domains shown, 3C1 HC-3/3C1 LC-1) VH: QVQLVQSGSELKKPGASVKVSCKASGYTFTGYTMNWVRQAPGQGLEWMGLINPYIGNTHYNQKFKDRFVFSVDRSSSTAYLQISSLKAEDTAVYYCARELDSGFDYWGQGTLVTVSS VL: DVVMTQSPLSLPVTLGQPASISCRSSQNIVHSNGDTYLEWYQQRPGQSPRLLIYKVSNRFSGVPDRFSGSGSGTDFTLKISRVEAEDVGVYYCYQGSHVPWTFGQGTKLEIK",0.0464,–,64,56
"hu234 (antibody, V domains shown, 3C1 HC-4/3C1 LC-1) VH: QVQLVQSGAEVKKPGASVKVSCKASGYTFTGYTMNWVRQAPGQGLEWMGLINPYIGNTHYNQKFKDRVTFTVDRSSSTAYMELSRLRSDDTAVYYCARELDSGFDYWGQGTLVTVSS VL: DVVMTQSPLSLPVTLGQPASISCRSSQNIVHSNGDTYLEWYQQRPGQSPRLLIYKVSNRFSGVPDRFSGSGSGTDFTLKISRVEAEDVGVYYCYQGSHVPWTFGQGTKLEIK",0.0429,–,50,65
"hu235 (antibody, V domains shown, 3C1 HC-4/3C1 LC-2) VH: QVQLVQSGAEVKKPGASVKVSCKASGYTFTGYTMNWVRQAPGQGLEWMGLINPYIGNTHYNQKFKDRVTFTVDRSSSTAYMELSRLRSDDTAVYYCARELDSGFDYWGQGTLVTVSS VL: DVVMTQTPLSLSVTPGQPASISCRSSQNIVHSNGDTYLEWYLQKPGQSPQLLIYKVSNRFSGVPDRFSGSGSGTDFTLKISRVEAEDVGVYYCYQGSHVPWTFGQGTKLEIK",0.0619,–,74,45
"hu228 (antibody, human IgG4 S228P, kappa, V domains shown) VH: QVQLVQSGAEVKKPGASVKVSCKASGYTFTGYTMNWVRQAPGQRLEWMGLINPYIGNTHYNQKFKDRVTFTVDRSSSTAYMELSSLRSEDTAVYYCARELDSGFDYWGQGTLVTVSS VL: DVVMTQSPDSLAVSLGERATINCRSSQNIVHSNGDTYLEWYQQKPGQPPKLLIYKVSNRFSGVPDRFSGSGSGTDFTLTISSLQAEDVAVYYCYQGSHVPWTFGQGTKLEIKR",0.0267,–,68,88
"hu136 (antibody, V domains shown, 2B8 HC1-3/1F5 LC1-2) VH: QVQLVQSGAEVKKPGASVKVSCKASGYTFTDYNMHWVRQAPGQGLEWMGNIYPYNAGTVYNQKFNNRVTLTVDTSSSTAYMELSRLRSDDTAVYYCAREGLGGYWGQGTLVTVSS VL: EIVLTQSPATLSLSPGERATLSCKASQNIDFDGYAYMNWYQHKPGQAPRVLIYSVFNLESGIPARFSGSGSGTDFTLTISSLEPEDFAVYYCQQSHEVPYTFGQGTKLEIK",0.124,28,101,–
"hu151 (antibody, V domains shown, 3E5 HC-1/1F5 LC1-4) VH: QVQLVQSGAEVKKPGASVKVSCKTSGYTFTDYNMHWVRQAPGQRLEWMGYISPYNGGTAYNQKFKFRVTLTVDTSSSTAYMELSSLRSEDTAVYYCAREGLGGYWGQGTLVTVSS VL: DIVLTQSPDSLAVSLGERATINCKASQNIDFDGYAYMNWYQHKPGQPPKVLIYSVFNLESGVPDRFSGSGSGTDFTLTISSLQAEDVAVYYCQQSHEVPYTFGQGTKLEIK",0.0677,48,119,–
"hu86 (antibody, V domains shown, 1F5 HC-5/1F5 LC1-4) VH: QVQLVQSGAEVKKPGASVKVSCKASGYTFIDFNMHWVRQAPGQRLEWMGYIYPYNADVVYNQDFTNRVTLTVDTSSSTAYMELSSLRSEDTAVYYCAREGLGGYWGQGTLVTVSS VL: DIVLTQSPDSLAVSLGERATINCKASQNIDFDGYAYMNWYQHKPGQPPKVLIYSVFNLESGVPDRFSGSGSGTDFTLTISSLQAEDVAVYYCQQSHEVPYTFGQGTKLEIK",0.134,35,118,–
